Measurements as given in the Human Domainome abundance scans (Beltran et al. 2025).
± gives the uncertainty stated by the source.

B1: FERM and PDZ domain-containing protein 4, residues 75 to 154; numbered along this chain, Q14CM0 (parent)
chain: APRKVEMRRDPVLGFGFVAGSEKPVVVRSVTPGGPSEGKLIPGDQIVMINDEPVSAAPRERVIDLVRSCKESILLTVIQP

Variants of: B1
Test: abundance fitness (aPCA) (normalised: wild type 0, dead -1); higher = more abundant; growth selection in yeast, the domain comes from the species named
Details: Homo sapiens

Variant | abundance fitness
G34L | -0.595 ± 0.032
G34M | -0.692 ± 0.051
G34R | -0.954 ± 0.039
G34K | -1.02 ± 0.084
R28M | -0.065 ± 0.029
R28G | -0.014 ± 0.02
R28T | 0.005 ± 0.029
R28A | -0.032 ± 0.023
R28P | -0.725 ± 0.052
R28Q | 0.027 ± 0.031
R28E | 0.034 ± 0.025
R28N | 0.001 ± 0.038
R28K | -0.002 ± 0.03
R28D | -0.038 ± 0.034
R28H | -0.08 ± 0.039
R28L | -0.036 ± 0.024
R28Y | -0.137 ± 0.037
R28F | -0.134 ± 0.043
R28V | -0.089 ± 0.022
R28C | -0.136 ± 0.032
P35L | -0.857 ± 0.044

Variant | abundance fitness
P35G | -0.661 ± 0.032
P35D | -0.737 ± 0.07
P35A | -0.202 ± 0.028
P35K | -0.59 ± 0.047
P35E | -0.35 ± 0.037
P35I | -0.622 ± 0.088
P35C | -0.435 ± 0.05
S29Q | -0.026 ± 0.027
S29M | -0.083 ± 0.029
S29I | -0.221 ± 0.047
S29V | -0.136 ± 0.023
S29D | -0.034 ± 0.037
S29H | -0.139 ± 0.039
S29R | -0.069 ± 0.02
S29W | -0.22 ± 0.024
S29L | -0.152 ± 0.023
S29C | -0.136 ± 0.03
S29E | 0.007 ± 0.026
S29T | -0.029 ± 0.027
S29F | -0.197 ± 0.039
S29G | -0.055 ± 0.021

Variant | abundance fitness
S29A | -0.074 ± 0.024
S29Y | -0.189 ± 0.039
S29N | -0.032 ± 0.041
S29P | -0.826 ± 0.044
S29K | -0.059 ± 0.032
G16H | -1.01 ± 0.14
G16Q | -0.889 ± 0.066
G16T | -0.946 ± 0.061
G16A | -0.499 ± 0.027
G16P | -0.977 ± 0.063
G16C | -0.956 ± 0.074
G16N | -0.677 ± 0.099
G16I | -1.32 ± 0.2
G16K | -0.911 ± 0.066
G16F | -1.03 ± 0.13
G16V | -1.08 ± 0.049
G16S | -0.813 ± 0.039
G16D | -0.783 ± 0.057
G16R | -1.04 ± 0.042
G16L | -1.15 ± 0.066
G16Y | -1.3 ± 0.27

Variant | abundance fitness
F17L | -0.294 ± 0.026
F17Y | -0.395 ± 0.052
F17K | -0.842 ± 0.051
F17D | -0.921 ± 0.077
F17C | -0.637 ± 0.044
F17H | -0.806 ± 0.074
F17W | -0.218 ± 0.026
F17G | -0.897 ± 0.032
F17M | -0.381 ± 0.035
F17T | -0.887 ± 0.054
F17E | -0.832 ± 0.043
F17V | -0.704 ± 0.031
F17N | -0.923 ± 0.098
F17I | -0.322 ± 0.043
F17A | -0.857 ± 0.041
F17P | -0.916 ± 0.066
P32E | -0.037 ± 0.034
P32M | -0.039 ± 0.031
P32D | -0.075 ± 0.032
P32W | -0.247 ± 0.037
P32Q | -0.018 ± 0.03
